PMC6279252

What was measured:
[1] = molecular target: GST-Ragulator pre-incubated with GFP-tagged active-loaded Rag heterodimers (UniProt Q6IAA8); test: single-molecule imaging on beads
[2] = molecular target: stable Ragulator-VhH + GFP-Rag complexes (UniProt Q9Y2Q5); test: single-molecule imaging on beads
UniProt Q9Y2Q5, sequence (Q9Y2Q5 whole entry, looked up, one chain of several): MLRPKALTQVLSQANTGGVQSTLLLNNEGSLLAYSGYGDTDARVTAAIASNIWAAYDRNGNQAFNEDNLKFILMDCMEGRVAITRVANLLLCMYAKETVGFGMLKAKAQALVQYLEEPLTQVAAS

residence time (photobleaching-corrected half-life, t1/2) [1]: 3.1 s
residence time (photobleaching-corrected half-life, t1/2) [2]: 13.2 s
Substance: Raptor-Halo^TMR (co-purified with mTOR and mLST8) (from UniProt Q8N122;P42345;Q9BVC4) (complex)
